Results on nine molecules are retold here after patent US20240024501A1 (BONUM THERAPEUTICS, published 2024).

Read-outs that look alike come from different tables or passages of the source.

The target in test [1] is T1, LRRC15-hFc (Sino Biologicals, 15786-H02H) (UniProt Q8TF66 22-538).
T1 construct: also called LRRC15-Fc
T1 sequence (looked up): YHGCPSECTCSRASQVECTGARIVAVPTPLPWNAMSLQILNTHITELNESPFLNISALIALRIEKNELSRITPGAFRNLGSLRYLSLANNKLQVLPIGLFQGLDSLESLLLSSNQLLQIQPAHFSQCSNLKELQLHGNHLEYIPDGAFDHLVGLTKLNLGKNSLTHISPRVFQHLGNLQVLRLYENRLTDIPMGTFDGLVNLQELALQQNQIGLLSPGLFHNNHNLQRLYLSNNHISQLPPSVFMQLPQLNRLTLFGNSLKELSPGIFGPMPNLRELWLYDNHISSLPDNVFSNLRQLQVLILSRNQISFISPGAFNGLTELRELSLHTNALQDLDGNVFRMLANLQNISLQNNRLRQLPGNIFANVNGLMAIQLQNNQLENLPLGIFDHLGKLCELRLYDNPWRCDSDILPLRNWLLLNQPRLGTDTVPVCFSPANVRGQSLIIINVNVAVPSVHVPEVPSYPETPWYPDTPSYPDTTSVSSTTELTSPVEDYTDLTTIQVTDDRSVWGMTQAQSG
Put plainly: ELISA (Example 33): cell-free expressed scFv on LRRC15; x axis Log (concentration, nM).

In test [2] the target is T2, AF33.
T2 construct: also called IL-15; IL15
Briefly: ELISA: scFv captured at saturating level on anti-V5, titrated biotinylated AF33 (IL-15 fusion), streptavidin-HRP.

In test [3] the target is T3, PDL1-hFc-Avi (Acro Biosystems, PDL-H82F2) (UniProt Q9NZQ7 19-238, biotinylated). Briefly: ELISA: scFv captured at saturating level on anti-V5, titrated PDL1-hFc-Avi, streptavidin-HRP.
Another test has as its target T4, AF3099.
T4 construct: IFNα-linker-DBA scFv variant complex
Briefly: ELISA as in Example 9: dilution series of the IFN-scFv complex captured on anti-V5, probed with IFNAR2-Biotin with or without PD-L1, streptavidin-HRP.

In test [4] the target is T2, AF33. Briefly: ELISA: scFv captured at saturating level on anti-V5, titrated biotinylated AF33 (IL-15 fusion), streptavidin-HRP. This is another data set of the same source.
The target in test [5] is T3, PDL1-hFc-Avi (Acro Biosystems, …). Briefly: ELISA: scFv captured at saturating level on anti-V5, titrated PDL1-hFc-Avi, streptavidin-HRP. This is another data set of the same source.
The target in another test is T5, PD-L1 (Eu-labeled) (UniProt Q9NZQ7 19-238, limits assumed, Eu label).
T5 construct: also called Eu-labeled PD-L1
Briefly: HTRF.

B1: A03 (scFv)
scFv: MSTSTQVQLVQSGAEVKKPGASVKVSCKASGYTFTGYYMHWVRQAPGQGLEWMGWMDPNNDDADYAQRFQGRVTMTRDTSTSTVYMELSSLRSEDTAVYYCASLAAAGPYYYYGMDVWGQGTLVTVSSASGGGGSGGGGSGGGGSHASDIQMTQSPSSLSASVGDRVTITCRASQSINNYLNWYQQKPGKAPKLLIYGASNLETGVPSRFSGSGSGTDFTLTISSLQPEDFATYYCQQSYGTPLTFGGGTKVEIKRAAAGSGSEQKLISEEDLGKPIPNPLLGLDST
Take B1: the binding result in test [1] is on record as “binds”.

B2: B07 (scFv)
scFv: MSTSTQVQLVQSGAEVKKPGASVKVSCKASGYTFTGYYMHWVRQAPGQGLEWMGWMDPNNDDADYAQRFQGRVTMTRDTSTSTVYMELSSLRSEDTAVYYCASLAAAGPYYYYGMDVWGQGTLVTVSSASGGGGSGGGGSGGGGSHASDIQMTQSPSSLSASVGDRVTITCQASQDISNYLNWYQQKPGKAPKLLIYGASILEAGVPSRFSGSGSGTDFTLTISSLQPEDFATYYCQQSYSAPITFGQGTRLEIKRAAAGSGSEQKLISEEDLGKPIPNPLLGLDST
For the molecule B2, the binding result in test [1] is “binds”.

B3: AF636 (scFv)
scFv: MSTSTEQKLISEEDLQVQLVQSGAEVKKPGASVKVSCKASGYSFTSYYLHWVRQAPGQGLEWMGRISPRSGGTKNAQNFQGRVTMTRDTSTSTVYMELSSLRSEDTAVYYCVRSLFPTIFGVEVAFDIWGQGTLVTVSSASGGGGSGGGGSGGGGSHASDIQMTQSPSSLSASVGDRVTITCRASQSISSWLAWYQQKPGKAPKLLIYYASSLQSGVPSRFSGSGSGTDFTLTISSLQPEDFATYYCQQGYQYPYTFGQGTKLEIKGKPIPNPLLGLDST
Take B3: the binding result (with AF33 [2]; in test [3]) was “binds” each time.

B4: i47_A12 (scFv)
scFv: MSTSTQVQLVQSGAEVKKPGSSVKVSCKASGYTFINNDINWVRQAPGQGLEWMGGTIPIFGVHIYAQKFQGRVTITADESTSTAYMELSSLRSEDTAVYYCVSSVGAGAYYYYGMDVWGQGTLVTVSSASGGGGSGGGGSGGGGSHASDIQMTQSPSSLSASVGDRVTITCQASQDISNYLNWYQQKPGKAPKLLIYAASSLQSGVPSRFSGSGSGTDFTLTISSLQPEDFATYYCQQSYSLPYTFGQGTRLEIKRAAAGSGSEQKLISEEDLGKPIPNPLLGLDST
Consider B4, for which the binding result in test [1] is given as “binds”.

B5: IFNAR2-Biotin (receptor)
chain: ISYDSPDYTDESCTFKISLRNFRSILSWELKNHSIVPTHYTLLYTIMSKPEDLKVVKNCANTTRSFCDLTDEWRSTHEAYVTVLEGFSGNTTLFSCSHNFWLAIDMSFEPPEFEIVGFTNHINVMVKFPSIVEEELQFDLSLVIEEQSEGIVKKHKPEIKGNMSGNFTYIIDKLIPNTNYCVSVYLEHSDEQAVIKSPLKCTLLPPGQESESAESAK
modifications: biotinylated
notes: also called biotinylated interferon receptor (IFNAR2)
Turning to B5, the binding result with AF3099 is “no binding (tested: 0.5 % IFN-scFv)”.

B6: AF635 (scFv)
scFv: MSTSTEQKLISEEDLQVQLVQSGAEVKKPGASVKVSCKASGYTFTGYYIHWVRQAPGQGLEWMGIINPSGGSTRYAQKFQGRVTMTRDTSTSTVYMELSSLRSEDTAVYYCARSLFPTIFGVEVAFDIWGQGTLVTVSSASGGGGSGGGGSGGGGSHASDIQMTQSPSSLSASVGDRVTITCRASQSIRTYLNWYQQKPGKAPKLLIYSASNLQSGVPSRFSGSGSGTDFTLTISSLQPEDFATYYCQQANSFPFTFGPGTKVDIKGKPIPNPLLGLDST
For the molecule B6, the binding result (with AF33 [4]; in test [5]) was “binds” each time.

B7: i47_A11 (scFv)
scFv: MSTSTQVQLVQSGAEVKKPGSSVKVSCKASGYTFTSYDINWVRQAPGQGLEWMGTINPSDGDTTYAQKFQGRVTITADESTSTAYMELSSLRSEDTAVYYCARVGGWGIYYYYGMDVWGQGTLVTVSSASGGGGSGGGGSGGGGSHASDIQMTQSPSSLSASVGDRVTITCRASQSINSWLAWYQQKPGKAPKLLIYAASSLQSGVPSRFSGSGSGTDFTLTISSLQPEDFATYYCQQTYTVPFSFGQGTKLEIKRAAAGSGSEQKLISEEDLGKPIPNPLLGLDST
Take B7: the binding result in test [1] is listed as “binds”.

B8: PDL1-IFN-R01-A11 (scFv)
scFv: QVQLVQSGAEVKKPGASVKVSCKASGGTFSSYYMHWVRQAPGQGLEWMGWMNPNSGNTGYAQKFQGRVTMTRDTSTSTVYMELSSLRSEDTAVYYCARSLFPTIFGVEVAFDIWGQGTLVTVSSASGGGGSGGGGSGGGGSHASDIQMTQSPSSLSASVGDRVTITCQASQDITNYLNWYQQKPGKAPKLLIYAASSLESGVPSRFSGSGSGTDFTLTISSLQPEDFATYYCQQSYSIPITFGQGTRLEIK
notes: expressed cell-free as Myc tag + scFv + V5 tag
Regarding B8, the “PDL1 Binding (HTRF signal)” value with PD-L1 (Eu-labeled) amounted to 2960.

B9: PDL1-IFN-R01-B09 (scFv)
scFv: QVQLVQSGAEVKKPGASVKVSCKASGGTFTGYYMHWVRQAPGQGLEWMGWVNPNSGNTGYAQKFQGRVTMTRDTSTSTVYMELSSLRSEDTAVYYCARSLFPTIFGVEVAFDIWGQGTLVTVSSASGGGGSGGGGSGGGGSHASDIQMTQSPSSLSASVGDRVTITCQASQDISNYLNWYQQKPGKAPKLLIYAASSLQSGVPSRFSGSGSGTDFTLTISSLQPEDFATYYCQQSYSPPPTFGQGTKLEIK
notes: as for B8
With B9, the “PDL1 Binding (HTRF signal)” value in the test with PD-L1 (Eu-labeled) stood at 1380.
